Test results: paper PMC8165646

Molecular target: HA-tagged mutant (Leu15) AP2σ2 subunit (human) (human) (UniProt P53680)
Assay: co-IP; lysates of HEK293 cells stably expressing FLAG-CaSR with HA-tagged WT or Leu15 AP2σ2; anti-HA-sepharose beads 2 h; blots with anti-AP2α, anti-AP2β2 and anti-AP2μ2 for the endogenous subunits; lysis buffer 0.5% NP40, 135 mM NaCl, 20 mM Tris pH 7.5, 1 mM EDTA

## AP2α subunit, endogenous in HEK293 (from UniProt O95782 1-977) (natural protein)
  reduction of the subunit in the HA-AP2σ2 immunoprecipitate, Leu15 cells against WT cells: > 50%
